Broadly, the Kd is a measure of binding affinity in units of concentration. High values mean weaker binding, low ones tighter binding.

Square brackets hold non-standard residues; d marks the D form. Ends that are not written are not given here. pT = C[C@@H](OP(=O)(O)O)[C@H](N)C(=O)O

The source of these data is publication PMC3545106 (Structure (London, England : 1993), 2012).

Experiment [1] has as its target T1, AF4 peptide phosphorylated at T766.
T1 chain: LMVKI[pT]LDLLSRIP
As to the kind of experiment: fluorescence polarisation. In general terms: In fluorescence polarisation assays a small probe gives low polarisation when free and higher when bound to something large.

Experiment [2] addresses AF4 peptide of the fluorescence anisotropy experiments. As to the kind of experiment: fluorescence polarisation.
For experiment [3], the target named is BCoR peptide of the fluorescence anisotropy experiments. The experiment in a line: fluorescence polarisation.
The target in experiment [4] is T2, AF9 ANC1 Homology Domain (AHD), residues 490-568 (UniProt P42568 490-568).
T2 sequence (looked up): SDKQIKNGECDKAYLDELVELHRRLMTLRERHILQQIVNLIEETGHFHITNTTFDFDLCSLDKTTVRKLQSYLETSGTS
The experiment in a line: NMR titration.

B1: MBP-AF9 (mouse AF9 residues 475-568 fused to the Maltose Binding Protein) (domain or fragment, UniProt A2AM29 475-568, looked up)
chain: NNNQILEVKSPIKQSKSDKQIKNGECDKAYLDELVELHRRLMTLRERHILQQIVNLIEETGHFHITNTTFDFDLCSLDKTTVRKLQSYLETSGT
Take B1: the “fold reduction of affinity against the unphosphorylated AF4 peptide” value in experiment [1] is around 30 fold. Further, the Kd was 0.17 nM in experiment [2] and 32 nM in experiment [3].

As for LMVKITLDLLSRIP (peptide, UniProt P51825 761-774, looked up) [AF4 peptide, residues 761-774 (AF9 interaction motif of AF4)], in experiment [4], the binding result is recorded as “binds”.
